Results as given in publication PMC9727766 (bioRxiv, 2022).

B1: fp.006 monoclonal antibody (IgG) (antibody, V domains shown)
VH: EVQLVESGGGVVQPGGSLRLSCAASGFNFNNYALHWVRQAPGKGLEWVAIISYEARNKKYGVSVMGRFSISRDNSKSIMYLEMNSLRVEDTGVYYCARDLFLSDYDRSGYDPTRGGFDHWGQGTLVTVSS
VL: EIVMTQSPATLSVSPGERATLSCRASQSVSSSLAWYQHRFGQAPRLLISGASTRATGIPGRFSGSGSGTEFTLTISSLQSEDVAVYYCQQYGDWPLVTFGGGTKVEIK
B2: fp.006 Fab (Fab, V domains shown)
VH: B1 VH
VL: B1 VL
B3: sd1.040 monoclonal antibody (IgG) (antibody, V domains shown)
VH: QVQLVQSGAEVKKPGASVKVSCKASGYTFTSFYIHWVRQAPGQGLEWMGIIDPSGGSTSYPQKFQGRVTMTRDTSTSTVYMDLSSLRSEDTAVYYCTRDGSAGDNSWFDPWGQGTLVTVSS
VL: not shown

How the values were obtained:
[1] = target: T1, SARS-CoV-2 S protein, C-terminally truncated (pSARS-CoV2-S_trunc), ancestral, on 293T cells (SARS-CoV-2 ancestral (Wuhan), UniProt P0DTC2); experiment: cell-based or functional assay
[2] = target: T1, SARS-CoV-2 S protein, C-terminally …; experiment: flow cytometry on cells
[3] = target: SARS-CoV-2 fusion peptide (FP) peptide 812…831 (SARS-CoV-2 ancestral, Biotin-Ahx at the N-terminus; C-terminal amidation); experiment: crystal structure

Binder | IC50 of neutralisation of SARS-CoV-2 pseudovirus (ancestral) [1] [ng/mL] | fold increase of binding with soluble ACE2 [2] [fold] | binding result [3]
B1 | 737 | 5.8 | –
B2 | – | – | binds
B3 | 245 | – | –
